B1: HSP90AB1 (parent)
chain: EADKNDKAVKDLVVLLFETALLSS

Drawing on the supplement of paper PMC10567573, this text covers protein stability index for 94 variants.
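Note: lentivirally expressed fusions sorted by FACS into six bins by GFP to DsRed ratio, PSI derived from sequencing read proportions per bin multiplied by bin number.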

Variants of B1 are the subject of this data set. As to the kind of experiment: protein stability index of a GFP-peptide fusion (GPS, HEK-293T) (PSI 1-6); higher = more stable. The settings on record: c terminus: a fixed tail appended.
Turning to EADKNDKAVKDLVVLLHETALLSS [F17H], the protein stability index amounted to 3.13. Take EADKNDKAVKDLVVLLCETALLSS [F17C]: the protein stability index is 2.59. Next, EADKNDKAVKDLVVLLGETALLSS [F17G]: 4.26. Consider EADKNDKAVKDLVVLLDETALLSS [F17D], for which the protein stability index stood at 4.65. Next, EADKNDKAVKDLVVLLAETALLSS [F17A]: 3.56. Then EADKNDKAVKDLVVLLEETALLSS [F17E], with 4.22. Then EADKNDKAVKDLVVLSFETALLSS [L16S], with 3.94; and EADKNDKAVKDLVVLFFETALLSS [L16F], with 1.69; and EADKNDKAVKDLVVLPFETALLSS [L16P], with 4.67. Regarding EADKNDKAVKDLVVLGFETALLSS [L16G], the protein stability index was found to be 4.18. Then EADKNDKAVKDLVVLEFETALLSS [L16E], with 4.31; and EADKNDKAVKDLVVLRFETALLSS [L16R], with 3.37; and EADKNDKAVKDLVVLVFETALLSS [L16V], with 2.16. For EADKNDKAVKDLVVLQFETALLSS [L16Q], the protein stability index was determined as 4.37. Next, EADKNDKAVKDLVVLYFETALLSS [L16Y]: 2.27; EADKNDKAVKDLVVLTFETALLSS [L16T]: 3.63; EADKNDKAVKDLVVLCFETALLSS [L16C]: 3.07.

Regarding EADKNDKAVKDLVVLAFETALLSS [L16A], the protein stability index came out at 3.56. For EADKNDKAVKDLVVLNFETALLSS [L16N], the protein stability index amounted to 4.05. Next, EADKNDKAVKDLVVLDFETALLSS [L16D]: 4.88; EADKNDKAVKDLVVLHFETALLSS [L16H]: 3.34; EADKNDKAVKDLVVLIFETALLSS [L16I]: 2.07. Then EADKNDKAVKDLVVLKFETALLSS [L16K], with 3.62. Then EADKNDKAVKDLVVLWFETALLSS [L16W], with 2.2; and EADKNDKAVKDLAVLLFETALLSS [V13A], with 2.41; and EADKNDKAVKDLHVLLFETALLSS [V13H], with 2.58. As to EADKNDKAVKDLCVLLFETALLSS [V13C], the protein stability index was 2.03. For EADKNDKAVKDLYVLLFETALLSS [V13Y], the protein stability index came out at 2.33. Next, EADKNDKAVKDLKVLLFETALLSS [V13K]: 3.37; EADKNDKAVKDLLVLLFETALLSS [V13L]: 2.1; EADKNDKAVKDLNVLLFETALLSS [V13N]: 3.7. As for EADKNDKAVKDLPVLLFETALLSS [V13P], the protein stability index was determined as 3.78.

For EADKNDKAVKDLEVLLFETALLSS [V13E], the protein stability index was 3.74.

With EADKNDKAVKDLFVLLFETALLSS [V13F], the protein stability index was 2.41. Next, EADKNDKAVKDLGVLLFETALLSS [V13G]: 3.38. Next, EADKNDKAVKDLIVLLFETALLSS [V13I]: 1.93.

With EADKNDKAVKDLTVLLFETALLSS [V13T], the protein stability index was 3.27. Take EADKNDKAVKDLRVLLFETALLSS [V13R]: the protein stability index was 2.98. Then EADKNDKAVKDLSVLLFETALLSS [V13S], with 3.54; and EADKNDKAVKDLQVLLFETALLSS [V13Q], with 4.08.

Regarding EADKNDKAVKDLDVLLFETALLSS [V13D], the protein stability index is 3.81. Next, EADKNDKAVKDLVTLLFETALLSS [V14T]: 2.12; EADKNDKAVKDLVALLFETALLSS [V14A]: 1.77. Next, EADKNDKAVKDLVCLLFETALLSS [V14C]: 2.81; EADKNDKAVKDLVNLLFETALLSS [V14N]: 2.21.

Regarding EADKNDKAVKDLVKLLFETALLSS [V14K], the protein stability index was determined as 2.64. Then EADKNDKAVKDLVSLLFETALLSS [V14S], with 2.17; and EADKNDKAVKDLVGLLFETALLSS [V14G], with 2.19; and EADKNDKAVKDLVWLLFETALLSS [V14W], with 1.92. Then EADKNDKAVKDLVRLLFETALLSS [V14R], with 2.29. Next, EADKNDKAVKDLVDLLFETALLSS [V14D]: 3.03; EADKNDKAVKDLVYLLFETALLSS [V14Y]: 1.88; EADKNDKAVKDLVILLFETALLSS [V14I]: 2.04. In the case of EADKNDKAVKDLVLLLFETALLSS [V14L], the protein stability index stood at 1.72. Next, EADKNDKAVKDLVQLLFETALLSS [V14Q]: 2.33; EADKNDKAVKDLVPLLFETALLSS [V14P]: 3.93. Then EADKNDKAVKDLVMLLFETALLSS [V14M], with 1.61; and EADKNDKAVKDLVFLLFETALLSS [V14F], with 1.98.

Take EADKNDKAVKDLVVCLFETALLSS [L15C]: the protein stability index was found to be 2.15. For the variant EADKNDKAVKDLVVMLFETALLSS [L15M], the protein stability index came out at 1.92. Then EADKNDKAVKDLVVALFETALLSS [L15A], with 2.52; and EADKNDKAVKDLVVNLFETALLSS [L15N], with 3.62; and EADKNDKAVKDLVVELFETALLSS [L15E], with 3.5. Then EADKNDKAVKDLVVWLFETALLSS [L15W], with 3.99; and EADKNDKAVKDLVVVLFETALLSS [L15V], with 1.5.

Take EADKNDKAVKDLVVQLFETALLSS [L15Q]: the protein stability index came out at 3.06. Next, EADKNDKAVKDLVVGLFETALLSS [L15G]: 3.23; EADKNDKAVKDLVVTLFETALLSS [L15T]: 2.71; EADKNDKAVKDLVVYLFETALLSS [L15Y]: 2.04. Then EADKNDKAVKDLVVHLFETALLSS [L15H], with 2.69.

On to EADKNDKAVKDLVVSLFETALLSS [L15S], for which the protein stability index amounted to 2.77. Next, EADKNDKAVKDLVVKLFETALLSS [L15K]: 2.48; EADKNDKAVKDLVVRLFETALLSS [L15R]: 2.64; EADKNDKAVKDLVVILFETALLSS [L15I]: 1.95. Consider EADKNDKAVKDLVVDLFETALLSS [L15D], for which the protein stability index turned out to be 3.61. Then EADKNDKAVKDLVVPLFETALLSS [L15P], with 4.06; and EADKNDKAVKDEVVLLFETALLSS [L12E], with 3.99. Then EADKNDKAVKDDVVLLFETALLSS [L12D], with 4.21.

Consider EADKNDKAVKDNVVLLFETALLSS [L12N], for which the protein stability index was 3.89. Then EADKNDKAVKDTVVLLFETALLSS [L12T], with 2.73; and EADKNDKAVKDQVVLLFETALLSS [L12Q], with 3.71; and EADKNDKAVKDIVVLLFETALLSS [L12I], with 2.46.

For the variant EADKNDKAVKDPVVLLFETALLSS [L12P], the protein stability index was 3.2. Then EADKNDKAVKDFVVLLFETALLSS [L12F], with 1.72. Regarding EADKNDKAVKDAVVLLFETALLSS [L12A], the protein stability index was 2.52. Next, EADKNDKAVKDYVVLLFETALLSS [L12Y]: 2.16; EADKNDKAVKDGVVLLFETALLSS [L12G]: 3.5. Next, EADKNDKAVKDRVVLLFETALLSS [L12R]: 3.44; EADKNDKAVKDKVVLLFETALLSS [L12K]: 3.6. Then EADKNDKAVKDHVVLLFETALLSS [L12H], with 3.27. In the case of EADKNDKAVKDMVVLLFETALLSS [L12M], the protein stability index is 2.2. Next, EADKNDKAVKDVVVLLFETALLSS [L12V]: 2.1; EADKNDKAVKDSVVLLFETALLSS [L12S]: 3.49; EADKNDKAVKDCVVLLFETALLSS [L12C]: 2.35.
